Experimental data reported in US20030119716A1, “Methods for screening, treating and diagnosing G-protein coupled receptor-related disorders and compositions thereof” (Wyeth, priority 2001, published 2003).

Tested on: c-fos SRE activation in CHO cells stably expressing D2R
Assay: SRE-luciferase reporter assay, quinpirole-stimulated c-fos SRE activation in CHO-D2R cells
Type: cell-based, Chinese hamster
Conditions: for effect of RGS transfection on quinpirole dose-response curve of SRE activation: RGS (2 μg) transfected alone, no Gα co-transfection; for reduction in SRE activation: RGS co-expressed with Gαq/i chimera

Row | Molecule | effect of RGS transfection on quinpirole dose-response curve of SRE activation | reduction in quinpirole-stimulated SRE activation (RGS co-expressed with Gαi1, 100 nM quinpirole) | reduction in SRE activation | inhibition (attenuation) of SRE activation (RGS co-transfected with Gαi1, all quinpirole concentrations used (10 nM-100 μM)) [%] | reduction in quinpirole-stimulated SRE activation (RGS transfected without Gαi1 co-transfection, 100 nM quinpirole)
1 | RGSz1: human RGSz1 expressed from pCR3.1; highly selective for Gαz (protein) MPQLSQDNQECLQKHFSRPSIWTQFLPLFRAQRYNTDIHQITENEGDLRAVPDIKSFPPAQLPDSPAAPKLFGLLSSPLSSLARFFSHLLRRPPPEAPRRRLDFSPLLPALPAARLSRGHEELPGRLSLLLGAALALPGRPSGGRPLRPPHPVAKPREEDATAGQSSPMPQMGSERMEMRKRQMPAAQDTPGAAPGQPGAGSRGSNACCFCWCCCCSCSCLTVRNQEDQRPTIASHELRADLPTWEESPAPTLEEVNAWAQSFDKLMVTPAGRNAFREFLRTEFSEENMLFWMACEELKKEANKNIIEEKARIIYEDYISILSPKEVSLDSRVREVINRNMVEPSQHIFDDAQLQIYTLMHRDSYPRFMNSAVYKDLLQSLSEKSIEA | rightward shift of the dose-response curve |  |  |  | 
2 | RGS4: human RGS4 expressed from pCR3.1; potent GAP for both Gαq and Gαi (protein) MCKGLAGLPASCLRSAKDMKHRLGFLLQKSDSCEHNSSHNKKDKVVICQRVSQEEVKKWAESLENLISHECGLAAFKAFLKSEYSEENIDFWISCEEYKKIKSPSKLSPKAKKIYNEFISVQATKEVNLDSCTREETSRNMLEPTITCFDEAQKKIFNLMEKDSYRRFLKSRFYLDLVNPSSCGAEKQKGAKSSADCASLVPQCA | rightward shift of the dose-response curve | approximately 85% | about 60% | > 80 | approximately 40%
3 | RGS2: human RGS2 expressed from pCR3.1; selective GAP for Gαq (protein) MQSAMFLAVQHDCRPMDKSAGSGHKSEEKREKMKRTLLKDWKTRLSYFLQNSSTPGKPKTGKKSKQQAFIKPSPEEAQLWSEAFDELLASKYGLAAFRAFLKSEFCEENIEFWLACEDFKKTKSPQKLSSKARKIYTDFIEKEAPKEINIDFQTKTLIAQNIQEATSGCFTTAQKRVYSLMENNSYPRFLESEFYQDLCKKPQITTEPHAT | rightward shift of the dose-response curve |  | approximately 70% |  | 
